# Results: US12551573B2, “Compositions and methods for the targeting of PCSK9” (Scribe Therapeutics Inc., priority 2022, dated 2026)
# Assays:
# human B2M locus = assay: Editing (indel rate by NGS) at the B2M locus in HepG2 cells treated with LNPs; format: cell-based; conditions: LNPs with CasX 491 mRNA + gRNA spacer 7.9 (v1), highest dose of 250 ng
# Description: ˜50,000 HepG2 cells, cultured in DMEM/F-12 media containing 10% FBS and 1% PenStrep, were seeded per well in a 96-well plate. The next day, seeded cells were treated with varying concentrations of LNPs, which were prepared in six 2-fold serial dilutions starting at 250 ng. These LNPs were formulated to encapsulate CasX 491 mRNA and a B2M-targeting gRNA incorporating either scaffold variant 174 or 316 with spacer 7.9 (v1; see Table 26). […] Briefly, for editing assessment, amplicons were amplified from 200 ng of extracted gDNA with primers targeting the human B2M locus and processed by NGS using similar methods as described in Example 7.
# 6.7/6.8 target dsDNA [1] = assay: In vitro cleavage assay of CasX 491 RNPs: competent (active) fraction; format: biochemical; conditions: spacer 6.7 or 6.8, v1; equimolar RNP and DNA target
# Description: (§1) Double-stranded DNA (dsDNA) targets were formed by mixing the oligos in a 1:1 ratio in 1× cleavage buffer (20 mM Tris HCl PH 7.5, 150 mM NaCl, 1 mM TCEP, 5% glycerol, 10 mM MgCl2), following by heating to 95° C. for 10 minutes, and then allowing the solution to cool to room temperature. CasX ribonucleoproteins (RNPs) were reconstituted with CasX 491 and the indicated gRNAs at a final concentration of 1 μM with 1.2-fold excess of the indicated gRNA in 1x cleavage buffer. RNPs were allowed to form at 37° C. for 10 minutes.
# To determine the competent fraction formed by each gRNA, cleavage reactions were prepared with final RNP concentrations of 100 nM and final target concentrations of 100 nM. Reactions were carried out at 37° C. and initiated by the addition of the labeled target substrate (Table 27). Aliquots were taken at 0.5, 1, 2, 5, 10, and 30 minutes and quenched by adding an equal volume of 95% formamide with 25 mM EDTA. Samples were denatured by heating at 95° C. for 10 minutes and resolved on a 10% urea-PAGE gel. Gels were imaged and quantified as above. […] The plateau of each fit was determined and reported as the active fraction for each RNP in Table 30.
# B2M locus = assay: B2M knockout (HLA flow cytometry) in HEK293 cells transduced with AAV; format: cell-based, human; conditions: spacer 7.37, MOI 1E4, 3E3, 1E3 vg/cell, 5 days
# human PCSK9 locus [2] = assay: Secreted PCSK9 levels in HepG2 cells transfected with CasX 491 mRNA and gRNA; format: cell-based; conditions: CasX 491 mRNA + v1 gRNAs, spacers 6.7 and 6.8, 28 hours
# Description: (§2) Editing at the PCSK9 locus and consequential effects on secreted PCSK9 levels were assessed for conditions using CasX 491 mRNA co-delivered with a PCSK9-targeting gRNA with scaffold variant 174 compared to conditions where a PCSK9-targeting gRNA with scaffold variant 316 was used. 100 ng of in vitro transcribed mRNA coding for CasX 491 with a P2A and mScarlet fluorescent protein was transfected into HepG2 cells with version 1 (v1) of gRNAs 174-6.7, 174-6.8, 316-6.7, and 316-6.8 (see Table 26) using Lipofectamine™. After a media change, the following were harvested at 28 hours post-transfection: 1) transfected cells were harvested for editing assessment at the PCSK9 locus by NGS (next generation sequencing); and 2) media supernatant was harvested to measure secreted PCSK9 protein levels by ELISA. For editing analysis by NGS, amplicons were amplified from 200 ng of extracted gDNA with a set of primers targeting the PCSK9 locus and processed by NGS (described below). Secreted PCSK9 levels in the media supernatant were also analyzed using a fluorescence resonance energy transfer-based immunoassay from CISBio following the manufacturer's instructions. […]
# (§3) V1 through v6 variants of chemically-modified PCSK9-targeting gRNAs (Table 26) were assessed for their effects on editing potency and consequential effects on secreted PCSK9 levels in vitro. […]
# 6.7/6.8 target dsDNA [3] = assay: In vitro cleavage assay of CasX 491 RNPs: cleavage rate (kcleave); format: biochemical; conditions: CasX RNP, 20-fold excess RNP
# Description: as §1
# The effects of various structural and chemical modifications to the gRNA scaffold on the cleavage rate of CasX 491 RNPs were determined. Cleavage reactions were prepared with final RNP concentrations of 200 nM and final target concentrations of 10 nM, and reactions were carried out at 16° C. and initiated by the addition of the labeled target DNA substrate (Table 27). Aliquots of reactions were taken at 0.25, 0.5, 1, 2, 5, and 10 minutes and quenched by adding an equal volume of 95% formamide with 20 mM EDTA. Samples were denatured at 95° C. for 10 minutes and resolved on a 10% urea-PAGE gel. Gels were imaged on a Typhoon™ laser-scanner platform and quantified using ImageQuant™ TL 8.2 image analysis software (Cytiva™). The apparent first-order rate constant of non-target strand cleavage (kcleave−) was determined for each CasX:gRNA combination.
# human PCSK9 locus [4] = assay: Editing (indel rate by NGS) at the PCSK9 locus in HepG2 cells transfected with CasX 491 mRNA and gRNA; format: cell-based; conditions: CasX 491 mRNA + v1 gRNAs, spacers 6.7 and 6.8, 28 hours
# Description: as §2, §3
molecule,measurement,setting,value
"scaffold 316: chimeric gRNA scaffold, SEQ ID NO: 1746 (nucleic acid, listed as RNA, chemistry not fully specified) guide: ACUGGCGCUUCUAUCUGAUUACUCUGAGCGCCAUCACCAGCGACUAUGUCGUAGUGGGUAAAGCUCCCUCUUCGGAGGGAGCAUCAGAG",editing level at the B2M locus vs scaffold 174,human B2M locus,nearly two-fold higher
same,"active fraction of CasX RNPs, higher than scaffold 174",6.7/6.8 target dsDNA [1],25-30%
same,editing at the B2M locus vs scaffold 235,B2M locus,appeared to improve editing at the B2M locus
same,reduction of PCSK9 secretion vs scaffold 174,human PCSK9 locus [2],more effective reduction of PCSK9 secretion
same,cleavage rate vs scaffold 174,"6.7/6.8 target dsDNA [3]; spacer 6.7, v1",marginally faster cleavage
same,cleavage rate vs scaffold 174,"6.7/6.8 target dsDNA [3]; spacer 6.8, v1",nearly twice as quickly
same,increase in editing rate at the PCSK9 locus over scaffold 174,human PCSK9 locus [4],~10 percentage point
